This data set deals with Saccharomyces cerevisiae. The data set can be described thus: protein stability index of tFT-peptide fusion (C-terminal peptide) (PSI (0-1 scale)); higher = more stable (slower turnover). The note with it: temperature: 30 C. As for the experimental part: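 MPS profiling in S. cerevisiae of the yeast C-terminome library: the last 12 aa of each annotated ORF are fused to the C-terminus of a sfGFP-mCherry timer, after a GGGS linker. Cells are FACS-sorted into 8 mCherry/sfGFP bins and deep-sequenced. PSI runs from 0 (unstable) to 1 (stable); wild type and das1Δ backgrounds, two technical replicates each.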

Where [1] appears, read: genetic background: das1 deletion.

± gives the standard deviation of the averaged measurements.

LQVKAVRAKLDE [ALD4 C-terminal 12 aa]: the protein stability index under setting [1] is 0.699 ± 0.031 and the protein stability index (genetic background: wild type) came out at 0.68 ± 0.037.

LREMMNKDFAGL [PSD2 C-terminal 12 aa]: the protein stability index runs as follows: under setting [1], 0.708 ± 0.02; (genetic background: wild type) 0.698 ± 0.0081.

With “LRKNRSLDERYF [YML057C-A C-terminal 12 aa]”, the protein stability index is, setting by setting: under setting [1], 0.7089 ± 0.0023; (genetic background: wild type) 0.6568 ± 0.0029.

For LRNKPFWENKRL [IPL1 C-terminal 12 aa], the protein stability index reads like this: under setting [1], 0.702 ± 0.019; (genetic background: wild type) 0.696 ± 0.015.

Sequence LRRIAKKHHKKK [SPB1 C-terminal 12 aa] returned a protein stability index under setting [1] of 0.699 ± 0.044 and a protein stability index (genetic background: wild type) of 0.722 ± 0.034.

LRRLTSPSRTQP [BAG7 C-terminal 12 aa] showed a protein stability index under setting [1] of 0.71894 ± 0.00039 and a protein stability index (genetic background: wild type) of 0.705 ± 0.012.

In the case of LRSKGKRYDTRS [YJR018W C-terminal 12 aa], the protein stability index is 0.7035 ± 0.0016 under setting [1] and 0.708 ± 0.024 (genetic background: wild type).

As to LRSKSRLRGSHT [AHC1 C-terminal 12 aa], the protein stability index came to 0.73 ± 0.014 under setting [1] and 0.654 ± 0.038 (genetic background: wild type).

On to LSATIFLRGFLL [YIM2 C-terminal 12 aa], for which the protein stability index stood at 0.675 ± 0.029 under setting [1] and 0.649 ± 0.031 (genetic background: wild type).

Regarding LSFVLASLNANK [FUN14 C-terminal 12 aa], the protein stability index was determined as 0.678 ± 0.021 under setting [1] and 0.67 ± 0.037 (genetic background: wild type).

For LSIGQKLTTPLC [SYC1 C-terminal 12 aa], the protein stability index was determined as 0.651 ± 0.015 under setting [1] and 0.656 ± 0.029 (genetic background: wild type).

On to “LSLIYSPHLYMS [YJL136W-A C-terminal 12 aa]”, for which the protein stability index reads like this: under setting [1], 0.643 ± 0.013; (genetic background: wild type) 0.101 ± 0.0022.

With LSNIITLCRIIV [PEX34 C-terminal 12 aa], the protein stability index under setting [1] was 0.465 ± 0.0065 and the protein stability index (genetic background: wild type) worked out at 0.319 ± 0.0077.

On to LSQLVKKKPRRH [HIF1 C-terminal 12 aa], for which the protein stability index runs as follows: under setting [1], 0.6885 ± 0.0039; (genetic background: wild type) 0.729 ± 0.073.

Regarding LSVKWAVNTLMS [SRP101 C-terminal 12 aa], the protein stability index is, setting by setting: under setting [1], 0.671 ± 0.014; (genetic background: wild type) 0.568 ± 0.039.

The sequence LTSMSARIAFDN [AAD14 C-terminal 12 aa] yielded a protein stability index under setting [1] of 0.7219 ± 0.0034 and a protein stability index (genetic background: wild type) of 0.699 ± 0.024.

On to LVASNFFYAETK [TFS1 C-terminal 12 aa], for which the protein stability index reads like this: under setting [1], 0.7066 ± 0.00069; (genetic background: wild type) 0.687 ± 0.028.

As to LVPEEEEETKDR [GRX5 C-terminal 12 aa], the protein stability index was 0.7214 ± 0.0068 under setting [1] and 0.698 ± 0.033 (genetic background: wild type).

On to LYAFHQVGIHFS [DIM1 C-terminal 12 aa], for which the protein stability index by setting is: under setting [1], 0.709 ± 0.032; (genetic background: wild type) 0.685 ± 0.014.

Take LYELKGLLGNDS [INP2 C-terminal 12 aa]: the protein stability index came out at 0.681 ± 0.021 under setting [1] and 0.673 ± 0.032 (genetic background: wild type).

LYHKDADTIFHA [IRC11 C-terminal 12 aa]: the protein stability index under setting [1] was determined as 0.708 ± 0.014 and the protein stability index (genetic background: wild type) turned out to be 0.715 ± 0.015.

As to LYPLFEAVPFRR [YBL096C C-terminal 12 aa], the protein stability index is, setting by setting: under setting [1], 0.729 ± 0.014; (genetic background: wild type) 0.734 ± 0.01.

Regarding LYSFNQLEPLQT [GIC2 C-terminal 12 aa], the protein stability index runs as follows: under setting [1], 0.703 ± 0.0092; (genetic background: wild type) 0.669 ± 0.025.

As for MDDEFVSGRFEI [SCH9 C-terminal 12 aa], the protein stability index under setting [1] was 0.717 ± 0.025 and the protein stability index (genetic background: wild type) worked out at 0.7026 ± 0.0042.

For the sequence MDETIAPLVGCL [YEL008W C-terminal 12 aa], the protein stability index was found to be 0.724 ± 0.012 under setting [1] and 0.701 ± 0.038 (genetic background: wild type).

Take MDLEKDRYYDLS [DAS2 C-terminal 12 aa]: the protein stability index reads like this: under setting [1], 0.6908 ± 0.0068; (genetic background: wild type) 0.68 ± 0.027.

On to MHQYSAIIPSGT [YJL182C C-terminal 12 aa], for which the protein stability index runs as follows: under setting [1], 0.642 ± 0.019; (genetic background: wild type) 0.603 ± 0.0061.

For the sequence MITCLTAALKLN [AVT6 C-terminal 12 aa], the protein stability index runs as follows: under setting [1], 0.6868 ± 0.0041; (genetic background: wild type) 0.174 ± 0.0018.

Regarding MLQYLVFVYIEK [YCR085W C-terminal 12 aa], the protein stability index came out at 0.182 ± 0.0095 under setting [1] and 0.21 ± 0.016 (genetic background: wild type).

Turning to MTDFSSSIIKGK [YCR090C C-terminal 12 aa], the protein stability index worked out at 0.713 ± 0.031 under setting [1] and 0.677 ± 0.048 (genetic background: wild type).

For the sequence MVKIRTKNDAKN [TAF2 C-terminal 12 aa], the protein stability index reads like this: under setting [1], 0.7067 ± 0.0054; (genetic background: wild type) 0.6135 ± 0.00067.

On to MVTSIRSTPNYI [MED6 C-terminal 12 aa], for which the protein stability index runs as follows: under setting [1], 0.694 ± 0.021; (genetic background: wild type) 0.722 ± 0.051.

Consider NAILNGGSVSGL [YAR066W C-terminal 12 aa], for which the protein stability index runs as follows: under setting [1], 0.677 ± 0.0079; (genetic background: wild type) 0.668 ± 0.02.

As for NASYTKKYVPHP [YPR059C C-terminal 12 aa], the protein stability index was 0.682 ± 0.0097 under setting [1] and 0.703 ± 0.063 (genetic background: wild type).

Consider NATYNDSESSLN [SPO13 C-terminal 12 aa], for which the protein stability index by setting is: under setting [1], 0.727 ± 0.016; (genetic background: wild type) 0.721 ± 0.0083.

In the case of NDINNSRPITRK [ARO80 C-terminal 12 aa], the protein stability index is, setting by setting: under setting [1], 0.682 ± 0.045; (genetic background: wild type) 0.666 ± 0.03.

For the sequence NEDWPNESKPLV [GOR1 C-terminal 12 aa], the protein stability index reads like this: under setting [1], 0.711 ± 0.0072; (genetic background: wild type) 0.663 ± 0.011.

Turning to NEELEKLRPPIT [SIP3 C-terminal 12 aa], the protein stability index worked out at 0.7001 ± 0.0018 under setting [1] and 0.716 ± 0.052 (genetic background: wild type).

For NEIATKLEETKL [TYS1 C-terminal 12 aa], the protein stability index is, setting by setting: under setting [1], 0.694 ± 0.037; (genetic background: wild type) 0.687 ± 0.0072.

For the sequence NESLSTILLYII [YKR033C C-terminal 12 aa], the protein stability index was 0.644 ± 0.008 under setting [1] and 0.561 ± 0.0068 (genetic background: wild type).

As to “NFFESYRTISCL [YPL038W-A C-terminal 12 aa]”, the protein stability index runs as follows: under setting [1], 0.6408 ± 0.0042; (genetic background: wild type) 0.3261 ± 0.0021.

As for NFGVSSSFSFKP [PEX3 C-terminal 12 aa], the protein stability index runs as follows: under setting [1], 0.7032 ± 0.003; (genetic background: wild type) 0.7154 ± 0.0041.

Take NFVMTVFWKIPV [PER33 C-terminal 12 aa]: the protein stability index was 0.5008 ± 0.0016 under setting [1] and 0.558 ± 0.075 (genetic background: wild type).

With NGANIFITSALT [YGL176C C-terminal 12 aa], the protein stability index under setting [1] stood at 0.691 ± 0.004 and the protein stability index (genetic background: wild type) turned out to be 0.684 ± 0.016.

For the sequence NGLKYHRGHSTH [SFP1 C-terminal 12 aa], the protein stability index under setting [1] was 0.703 ± 0.029 and the protein stability index (genetic background: wild type) was found to be 0.6745 ± 0.0032.

In the case of NIFYQLLLTVNY [YBR013C C-terminal 12 aa], the protein stability index was 0.229 ± 0.0065 under setting [1] and 0.272 ± 0.02 (genetic background: wild type).

On to NIGSPLGAPKKK [MBF1 C-terminal 12 aa], for which the protein stability index by setting is: under setting [1], 0.696 ± 0.031; (genetic background: wild type) 0.7008 ± 0.0064.

For the sequence NIHQTDYIYARL [BUD16 C-terminal 12 aa], the protein stability index by setting is: under setting [1], 0.798 ± 0.031; (genetic background: wild type) 0.708 ± 0.12.

For the sequence NILKVEKRAVLE [PMT1 C-terminal 12 aa], the protein stability index turned out to be 0.684 ± 0.013 under setting [1] and 0.659 ± 0.02 (genetic background: wild type).

Regarding NKEYWMKHKKPQ [PDE2 C-terminal 12 aa], the protein stability index came to 0.688 ± 0.0074 under setting [1] and 0.762 ± 0.013 (genetic background: wild type).

In the case of NKRDKRPANFTR [TSC11 C-terminal 12 aa], the protein stability index was 0.7063 ± 0.0042 under setting [1] and 0.692 ± 0.018 (genetic background: wild type).

As to NKVEENLEGLYL [RPT2 C-terminal 12 aa], the protein stability index is, setting by setting: under setting [1], 0.6934 ± 0.0063; (genetic background: wild type) 0.671 ± 0.015.

With NLSEAIHDNNGS [NNK1 C-terminal 12 aa], the protein stability index was found to be 0.717 ± 0.019 under setting [1] and 0.7091 ± 0.00097 (genetic background: wild type).

As to NNVPPIHPSLLH [NGR1 C-terminal 12 aa], the protein stability index runs as follows: under setting [1], 0.7115 ± 0.0066; (genetic background: wild type) 0.695 ± 0.017.

NPSILGDFTRED [RTR1 C-terminal 12 aa] came in with a protein stability index under setting [1] of 0.663 ± 0.015 and a protein stability index (genetic background: wild type) of 0.715 ± 0.02.

“NRHSYCFSNLAP [YOL085W-A C-terminal 12 aa]”: the protein stability index is, setting by setting: under setting [1], 0.739 ± 0.0025; (genetic background: wild type) 0.691 ± 0.023.

With NRIVSLKDATSK [GLN4 C-terminal 12 aa], the protein stability index under setting [1] came to 0.689 ± 0.021 and the protein stability index (genetic background: wild type) was determined as 0.685 ± 0.025.

Turning to NSFELNDFFITS [HAC1 C-terminal 12 aa], the protein stability index runs as follows: under setting [1], 0.7145 ± 0.0011; (genetic background: wild type) 0.74 ± 0.031.

Regarding NSLIFDAFNQIR [CDH1 C-terminal 12 aa], the protein stability index worked out at 0.732 ± 0.029 under setting [1] and 0.736 ± 0.054 (genetic background: wild type).

NTSRIAKFFNRR [SEC15 C-terminal 12 aa] displayed a protein stability index under setting [1] of 0.702 ± 0.031 and a protein stability index (genetic background: wild type) of 0.70527 ± 7.1e-05.

Consider NYAPHLSDATTS [MAC1 C-terminal 12 aa], for which the protein stability index reads like this: under setting [1], 0.694 ± 0.013; (genetic background: wild type) 0.7064 ± 0.0029.

In turn, PAAKGKNLSFKR [RRP6 C-terminal 12 aa] showed a protein stability index under setting [1] of 0.7188 ± 0.0035 and a protein stability index (genetic background: wild type) of 0.709 ± 0.015.

For the sequence PADIDKYIIQRK [FMP46 C-terminal 12 aa], the protein stability index reads like this: under setting [1], 0.7015 ± 0.0048; (genetic background: wild type) 0.672 ± 0.029.

In the case of PEDCKDDKYFVN [LCB2 C-terminal 12 aa], the protein stability index is, setting by setting: under setting [1], 0.6832 ± 0.0068; (genetic background: wild type) 0.685 ± 0.04.

As to “PFKERAVFLLVL [YDR524W-C C-terminal 12 aa]”, the protein stability index is, setting by setting: under setting [1], 0.523 ± 0.016; (genetic background: wild type) 0.361 ± 0.0078.

As for PGVDVEVVVASN [RPS20 C-terminal 12 aa], the protein stability index worked out at 0.669 ± 0.0061 under setting [1] and 0.702 ± 0.038 (genetic background: wild type).

Turning to PIAAIKEILDQV [DSF1 C-terminal 12 aa], the protein stability index by setting is: under setting [1], 0.666 ± 0.0092; (genetic background: wild type) 0.639 ± 0.03.
